The record followed here is publication doi:10.1101/538884 (bioRxiv, 2019).

This data set concerns the molecule itself. In words: SEC.

B1: HEV^440-691 (hepatitis E virus ORF1 residues 440-691) (domain or fragment, Hepatitis E virus (HEV), UniProt P33424 440-691, looked up)
chain: AGFHLDPRVLVFDESAPCHCRTAIRKAVSKFCCFMKWLGQECTCFLQPAEGVVGDQGHDNEAYEGSDVDPAESAISDISGSYVVPGTALQPLYQALDLPAEIVARAGRLTATVKVSQVDGRIDCETLLGNKTFRTSFVDGAVLETNGPERHNLSFDASQSTMAAGPFSLTYAASAAGLEVRYVAAGLDHRAVFAPGVSPRSAPGEVTAFCSALYRFNREAQRLSLTGNFWFHPEGLLGPFAPFSPGHVWESA
With B1, the binding result was “binds”.
